Measured values as given in US20120238493A1 (INDIANA UNIVERSITY RESEARCH AND TECHNOLOGY, published 2012).
*1 amine or outer side, *2 acyl side, *3 side chain or, on linkers, in order; H or OH if unused. Where no end group is shown, it is not given here. Side-chain parts run from the residue outwards. [ ]: non-standard residue; d: D form. The star is where a group is joined. γGlu = O=C(O)[C@H](CCC(=O)[*:2])N[*:1]; Palmitoyl = CCCCCCCCCCCCCCCC(=O)*; Myristoyl = CCCCCCCCCCCCCC(=O)*; 40K‑ME = not defined here; 40K‑TE = not defined here; Ac3c = NC1(C(=O)O)CC1; Aib = CC(C)(N)C(=O)O

T1: GIP receptor (UniProt P48546 22-466, limits assumed)
T1 sequence (looked up): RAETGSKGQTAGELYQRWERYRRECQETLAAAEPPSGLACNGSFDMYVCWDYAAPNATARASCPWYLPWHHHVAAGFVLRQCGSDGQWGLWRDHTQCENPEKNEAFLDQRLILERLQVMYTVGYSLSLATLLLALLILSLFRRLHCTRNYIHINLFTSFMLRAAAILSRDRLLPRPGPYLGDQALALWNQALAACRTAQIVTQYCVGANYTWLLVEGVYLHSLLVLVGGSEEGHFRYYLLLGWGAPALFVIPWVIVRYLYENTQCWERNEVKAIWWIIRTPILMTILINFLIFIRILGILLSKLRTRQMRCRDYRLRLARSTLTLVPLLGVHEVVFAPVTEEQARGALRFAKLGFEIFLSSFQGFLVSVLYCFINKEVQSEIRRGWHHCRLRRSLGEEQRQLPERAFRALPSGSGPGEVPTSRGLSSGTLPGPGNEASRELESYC

B1: peptide of SEQ ID NO: 58 (peptide)
peptide: Y[Aib]QGTFTSDYSIYLDKEAA[Aib]KFVNWLLAGGPSSGAPPPSC-NH2
modifications: lactam (positions not given here); also: lactam between underlined residues, underlining not shown
B2: peptide of SEQ ID NO: 59 (peptide)
peptide: Y[Aib]QGTFTSDYSIYLDKEAA[Aib]KFVNWLLAGGPSSGAPPPSC(40K‑TE)-NH2
modifications: lactam (positions not given here); reading uncertain; also: lactam between underlined residues, underlining not shown
B3: peptide of SEQ ID NO: 48 (peptide)
peptide: H[dS]QGTFTSDYSIYLDKQAA[Aib]EFVNWLLAGGPSSGAPPPSC-NH2
modifications: N-terminus assumed
SMILES: CC[C@H](C)[C@H](NC(=O)[C@H](CO)NC(=O)[C@H](Cc1ccc(O)cc1)NC(=O)[C@H](CC(=O)O)NC(=O)[C@H](CO)NC(=O)[C@@H](NC(=O)[C@H](Cc1ccccc1)NC(=O)[C@@H](NC(=O)CNC(=O)[C@H](CCC(N)=O)NC(=O)[C@@H](CO)NC(=O)[C@@H](N)Cc1c[nH]cn1)[C@@H](C)O)[C@@H](C)O)C(=O)N[C@@H](Cc1ccc(O)cc1)C(=O)N[C@@H](CC(C)C)C(=O)N[C@@H](CC(=O)O)C(=O)N[C@@H](CCCCN)C(=O)N[C@@H](CCC(N)=O)C(=O)N[C@@H](C)C(=O)N[C@@H](C)C(=O)NC(C)(C)C(=O)N[C@@H](CCC(=O)O)C(=O)N[C@@H](Cc1ccccc1)C(=O)N[C@H](C(=O)N[C@@H](CC(N)=O)C(=O)N[C@@H](Cc1c[nH]c2ccccc12)C(=O)N[C@@H](CC(C)C)C(=O)N[C@@H](CC(C)C)C(=O)N[C@@H](C)C(=O)NCC(=O)NCC(=O)N1CCC[C@H]1C(=O)N[C@@H](CO)C(=O)N[C@@H](CO)C(=O)NCC(=O)N[C@@H](C)C(=O)N1CCC[C@H]1C(=O)N1CCC[C@H]1C(=O)N1CCC[C@H]1C(=O)N[C@@H](CO)C(=O)N[C@@H](CS)C(N)=O)C(C)C
B4: peptide of SEQ ID NO: 56 (peptide)
peptide: Y[Aib]QGTFTSDYSIYLDEQAAKEFV[Aib]WLLAGGPSSGAPPPSC-NH2
modifications: lactam (positions not given here); also: lactam between underlined residues, underlining not shown
B5: peptide of SEQ ID NO: 54 (peptide)
peptide: Y[Aib]QGTFTSDYSIYLDKQAA[Aib]EFV[Aib]WLLAGGPSSGAPPPSC-NH2
modifications: N-terminus assumed
SMILES: CC[C@H](C)[C@H](NC(=O)[C@H](CO)NC(=O)[C@H](Cc1ccc(O)cc1)NC(=O)[C@H](CC(=O)O)NC(=O)[C@H](CO)NC(=O)[C@@H](NC(=O)[C@H](Cc1ccccc1)NC(=O)[C@@H](NC(=O)CNC(=O)[C@H](CCC(N)=O)NC(=O)C(C)(C)NC(=O)[C@@H](N)Cc1ccc(O)cc1)[C@@H](C)O)[C@@H](C)O)C(=O)N[C@@H](Cc1ccc(O)cc1)C(=O)N[C@@H](CC(C)C)C(=O)N[C@@H](CC(=O)O)C(=O)N[C@@H](CCCCN)C(=O)N[C@@H](CCC(N)=O)C(=O)N[C@@H](C)C(=O)N[C@@H](C)C(=O)NC(C)(C)C(=O)N[C@@H](CCC(=O)O)C(=O)N[C@@H](Cc1ccccc1)C(=O)N[C@H](C(=O)NC(C)(C)C(=O)N[C@@H](Cc1c[nH]c2ccccc12)C(=O)N[C@@H](CC(C)C)C(=O)N[C@@H](CC(C)C)C(=O)N[C@@H](C)C(=O)NCC(=O)NCC(=O)N1CCC[C@H]1C(=O)N[C@@H](CO)C(=O)N[C@@H](CO)C(=O)NCC(=O)N[C@@H](C)C(=O)N1CCC[C@H]1C(=O)N1CCC[C@H]1C(=O)N1CCC[C@H]1C(=O)N[C@@H](CO)C(=O)N[C@@H](CS)C(N)=O)C(C)C
B6: peptide of SEQ ID NO: 52 (peptide)
peptide: H[Aib]QGTFTSDYSIYLDKQAA[Aib]EFVNWLLAGGPSSGAPPPSC-NH2
modifications: N-terminus assumed
SMILES: CC[C@H](C)[C@H](NC(=O)[C@H](CO)NC(=O)[C@H](Cc1ccc(O)cc1)NC(=O)[C@H](CC(=O)O)NC(=O)[C@H](CO)NC(=O)[C@@H](NC(=O)[C@H](Cc1ccccc1)NC(=O)[C@@H](NC(=O)CNC(=O)[C@H](CCC(N)=O)NC(=O)C(C)(C)NC(=O)[C@@H](N)Cc1c[nH]cn1)[C@@H](C)O)[C@@H](C)O)C(=O)N[C@@H](Cc1ccc(O)cc1)C(=O)N[C@@H](CC(C)C)C(=O)N[C@@H](CC(=O)O)C(=O)N[C@@H](CCCCN)C(=O)N[C@@H](CCC(N)=O)C(=O)N[C@@H](C)C(=O)N[C@@H](C)C(=O)NC(C)(C)C(=O)N[C@@H](CCC(=O)O)C(=O)N[C@@H](Cc1ccccc1)C(=O)N[C@H](C(=O)N[C@@H](CC(N)=O)C(=O)N[C@@H](Cc1c[nH]c2ccccc12)C(=O)N[C@@H](CC(C)C)C(=O)N[C@@H](CC(C)C)C(=O)N[C@@H](C)C(=O)NCC(=O)NCC(=O)N1CCC[C@H]1C(=O)N[C@@H](CO)C(=O)N[C@@H](CO)C(=O)NCC(=O)N[C@@H](C)C(=O)N1CCC[C@H]1C(=O)N1CCC[C@H]1C(=O)N1CCC[C@H]1C(=O)N[C@@H](CO)C(=O)N[C@@H](CS)C(N)=O)C(C)C
B7: peptide of SEQ ID NO: 50 (peptide)
peptide: Y[dS]QGTFTSDYSIYLDKQAA[Aib]EFVNWLLAGGPSSGAPPPSC-NH2
modifications: N-terminus assumed
SMILES: CC[C@H](C)[C@H](NC(=O)[C@H](CO)NC(=O)[C@H](Cc1ccc(O)cc1)NC(=O)[C@H](CC(=O)O)NC(=O)[C@H](CO)NC(=O)[C@@H](NC(=O)[C@H](Cc1ccccc1)NC(=O)[C@@H](NC(=O)CNC(=O)[C@H](CCC(N)=O)NC(=O)[C@@H](CO)NC(=O)[C@@H](N)Cc1ccc(O)cc1)[C@@H](C)O)[C@@H](C)O)C(=O)N[C@@H](Cc1ccc(O)cc1)C(=O)N[C@@H](CC(C)C)C(=O)N[C@@H](CC(=O)O)C(=O)N[C@@H](CCCCN)C(=O)N[C@@H](CCC(N)=O)C(=O)N[C@@H](C)C(=O)N[C@@H](C)C(=O)NC(C)(C)C(=O)N[C@@H](CCC(=O)O)C(=O)N[C@@H](Cc1ccccc1)C(=O)N[C@H](C(=O)N[C@@H](CC(N)=O)C(=O)N[C@@H](Cc1c[nH]c2ccccc12)C(=O)N[C@@H](CC(C)C)C(=O)N[C@@H](CC(C)C)C(=O)N[C@@H](C)C(=O)NCC(=O)NCC(=O)N1CCC[C@H]1C(=O)N[C@@H](CO)C(=O)N[C@@H](CO)C(=O)NCC(=O)N[C@@H](C)C(=O)N1CCC[C@H]1C(=O)N1CCC[C@H]1C(=O)N1CCC[C@H]1C(=O)N[C@@H](CO)C(=O)N[C@@H](CS)C(N)=O)C(C)C

Each binder was assayed against glucagon receptor (UniProt P47871 26-477, limits assumed) (assay: cell-based or functional assay).
Sequence of glucagon receptor (P47871 26-477 limits assumed): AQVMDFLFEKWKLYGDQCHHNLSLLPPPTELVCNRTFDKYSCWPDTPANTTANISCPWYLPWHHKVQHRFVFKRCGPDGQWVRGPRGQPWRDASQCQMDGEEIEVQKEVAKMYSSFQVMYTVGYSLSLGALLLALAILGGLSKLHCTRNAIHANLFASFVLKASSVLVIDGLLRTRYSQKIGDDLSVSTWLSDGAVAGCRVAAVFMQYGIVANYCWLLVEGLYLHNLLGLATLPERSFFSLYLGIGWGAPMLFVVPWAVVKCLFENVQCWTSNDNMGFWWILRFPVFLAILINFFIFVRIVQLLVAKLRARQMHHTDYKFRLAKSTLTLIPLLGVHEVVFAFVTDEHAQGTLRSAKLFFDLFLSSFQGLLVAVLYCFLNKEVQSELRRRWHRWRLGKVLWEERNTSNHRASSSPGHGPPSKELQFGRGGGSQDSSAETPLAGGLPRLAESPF

| Binder | EC50 (cAMP reporter) [nM] |
| --- | --- |
| B1 | 0.063 |
| B2 | 0.432 |
| Y[dS]QGTFTSDYSIYLDKQAA[Aib]EFVNWLLAGGPSSGAPPPSC(40K‑TE)-NH2 (reading uncertain) [peptide of SEQ ID NO: 51] | 0.255 |
| Y[Aib]QGTFTSDK([γGlu-Myristoyl])SIYLDKQAA[Aib]EFVNWLLAGGPSSGAPPPSC(40K‑ME)-NH2 (reading uncertain) [peptide of SEQ ID NO: 68] | 50.1 |
| B3 | 0.026 |
| B4 | 1.27 |
| H[Aib]QGTFTSDYSIYLDKQAA[Aib]EFVNWLLAGGPSSGAPPPSC(40K‑TE)-NH2 (reading uncertain) [peptide of SEQ ID NO: 53] | 3.51 |
| B5 | 0.566 |
| Y[Aib]QGTFTSDK([γGlu-Palmitoyl])SIYLDKQAA[Aib]EFVNWLLAGGPSSGAPPPSC(40K‑ME)-NH2 (reading uncertain) [peptide of SEQ ID NO: 69] | 0.055 |
| Y[Aib]QGTFTSDYSIYLDKQAA[Ac3c]EFVNWLLAGGPSSGAPPPSC-NH2 [peptide of SEQ ID NO: 60] | 0.047 |
| B6 | 0.2 |
| Y[Aib]QGTFTSDYSIYLDKQAA[Aib]EFVC(40K‑ME)WLLAGGPSSGAPPPSK(Palmitoyl)-NH2 (not fully specified; reading uncertain) [peptide of SEQ ID NO: 70] | 0.018 |
| Y[Aib]EGTFISDYSIYLDKQAA[Aib]EFVNWLLAGGPSSGAPPPSC(40K‑TE)-NH2 (not fully specified; reading uncertain) [peptide of SEQ ID NO: 72] | 1.68 |
| B7 | 0.041 |

Each binder was assayed against T1, GIP receptor (assay: cell-based or functional assay).

| Binder | EC50 (cAMP reporter) [nM] |
| --- | --- |
| B1 | 0.005 |
| B2 | 0.122 |
| Y[dS]QGTFTSDYSIYLDKQAA[Aib]EFVNWLLAGGPSSGAPPPSC(40K‑TE)-NH2 (reading uncertain) [peptide of SEQ ID NO: 51] | 0.433 |
| Y[Aib]QGTFTSDK([γGlu-Myristoyl])SIYLDKQAA[Aib]EFVNWLLAGGPSSGAPPPSC(40K‑ME)-NH2 (reading uncertain) [peptide of SEQ ID NO: 68] | 0.862 |
| B3 | 0.433 |
| B4 | 1.98 |
| Y[Aib]QGTFTSDYSIYLDKQAA[Aib]EFVC(40K‑TE PEG)WLLAGGPSSGAPPPSK(C14)-NH2 [peptide of SEQ ID NO: 174] | 0.019 |
| H[Aib]QGTFTSDYSIYLDKQAA[Aib]EFVNWLLAGGPSSGAPPPSC(40K‑TE)-NH2 (reading uncertain) [peptide of SEQ ID NO: 53] | 0.232 |
| B5 | 0.467 |
| Y[Aib]QGTFTSDK([γGlu-Palmitoyl])SIYLDKQAA[Aib]EFVNWLLAGGPSSGAPPPSC(40K‑ME)-NH2 (reading uncertain) [peptide of SEQ ID NO: 69] | 0.015 |
| B6 | 0.006 |
| Y[Aib]QGTFTSDYSIYLDKQAA[Aib]EFVC(40K‑ME)WLLAGGPSSGAPPPSK(Palmitoyl)-NH2 (not fully specified; reading uncertain) [peptide of SEQ ID NO: 70] | 0.014 |
| Y[Aib]EGTFISDYSIYLDKQAA[Aib]EFVNWLLAGGPSSGAPPPSC(40K‑TE)-NH2 (not fully specified; reading uncertain) [peptide of SEQ ID NO: 72] | 0.035 |
| B7 | 0.072 |

These binders were tested against GLP-1 receptor (UniProt P43220 24-463, limits assumed) (assay: cell-based or functional assay).

| Binder | EC50 (cAMP reporter) [nM] |
| --- | --- |
| B1 | 0.014 |
| B2 | 0.063 |
| Y[dS]QGTFTSDYSIYLDKQAA[Aib]EFVNWLLAGGPSSGAPPPSC(40K‑TE)-NH2 (reading uncertain) [peptide of SEQ ID NO: 51] | 0.572 |
| Y[Aib]QGTFTSDK([γGlu-Myristoyl])SIYLDKQAA[Aib]EFVNWLLAGGPSSGAPPPSC(40K‑ME)-NH2 (reading uncertain) [peptide of SEQ ID NO: 68] | 0.612 |
| B3 | 0.01 |
| B4 | 0.096 |
| Y[Aib]QGTFTSDYSIYLDKQAA[Aib]EFVC(40K‑TE PEG)WLLAGGPSSGAPPPSK(C14)-NH2 [peptide of SEQ ID NO: 174] | 0.01 |
| H[Aib]QGTFTSDYSIYLDKQAA[Aib]EFVNWLLAGGPSSGAPPPSC(40K‑TE)-NH2 (reading uncertain) [peptide of SEQ ID NO: 53] | 0.027 |
| B5 | 0.091 |
| Y[Aib]QGTFTSDK([γGlu-Palmitoyl])SIYLDKQAA[Aib]EFVNWLLAGGPSSGAPPPSC(40K‑ME)-NH2 (reading uncertain) [peptide of SEQ ID NO: 69] | 0.02 |
| Y[Aib]QGTFTSDYSIYLDKQAA[Ac3c]EFVNWLLAGGPSSGAPPPSC-NH2 [peptide of SEQ ID NO: 60] | 0.0028 |
| B6 | 0.005 |
| Y[Aib]QGTFTSDYSIYLDKQAA[Aib]EFVC(40K‑ME)WLLAGGPSSGAPPPSK(Palmitoyl)-NH2 (not fully specified; reading uncertain) [peptide of SEQ ID NO: 70] | 0.007 |
| Y[Aib]EGTFISDYSIYLDKQAA[Aib]EFVNWLLAGGPSSGAPPPSC(40K‑TE)-NH2 (not fully specified; reading uncertain) [peptide of SEQ ID NO: 72] | 2.69 |
| B7 | 0.108 |
